The target in this assay is HLA-DR1 (HLA-DRB1*01:01), soluble recombinant MHCII (human). The assay is described as follows: fluorescence polarisation.

Consider “HA(306-318), unlabeled influenza hemagglutinin peptide”, for which the IC50 is 25 nM.

By IC50 is commonly meant the midpoint of a concentration-inhibition curve.

The values are drawn from paper PMC4151172.
